Test results reported in patent US20250290928A1, “METHOD, KIT AND DEVICE FOR DETECTING EXTRACELLULAR VESICLES” (priority 2022, published 2025).
*: point of attachment. 5FAM = O=C1OC2(c3ccc(O)cc3Oc3cc(O)ccc32)c2ccc(C(=O)*)cc21; TQ2 = quencher

Key:
[1] = target: T1, MMP14 in the MDA-MB-231-derived extracellular vesicles (Homo sapiens, UniProt P50281); assay: Evaluation of MMP14 activity of MDA-MB-231-derived extracellular vesicles with 96-well plate; format: biochemical; settings: for reaction rate per 1 μg/mL of extracellular vesicles: within 1 hour
T1 construct: in terms of intact MMP14 with a molecular weight of 70 kDa
Protocol: A relative fluorescence unit difference ΔRFU was calculated by subtracting the measured value of the sample for BG measurement from the measured value of each of the samples.
The concentration of the solution is 41.7 μg/mL. The concentration of the solution was set to x1, and 2-fold serial dilution was performed to prepare standard samples with six concentrations.
50 μL of the MMP14 detection solution was added to 50 μL of each of the samples, a reaction was performed at 37° C., and MMP14 activity was evaluated.
The concentration of the solution is 10 μg/mL.
50 μL of each of the MMP14 detection solutions was added to 50 μL of each of the samples, a reaction was performed at 37° C., and MMP14 activity was evaluated. […]
The concentration of the solution is 20 μg/mL. The concentration of the solution was set to x1, and 3-fold serial dilution was performed to prepare standard samples with three concentrations.
The concentration of the solution is 8 μg/mL.
50 μL of each of the MMP14 detection solutions was added to 50 μL of the sample, a reaction was performed at 37° C., and MMP14 activity was evaluated. […]
50 μL of the MMP14 detection solution was added to 50 μL of each of the samples, a reaction was performed at 30° C., and MMP14 activity was evaluated.
The MMP14 activity of the extracellular vesicles was evaluated with a 96-well plate (137101). A fluorescence intensity was measured with a fluorescence plate reader (Synergy) at 30° C. every 5 minutes for 2 hours. For measurement wavelengths, an excitation wavelength of 545±20 nm and a fluorescence wavelength of 588±20 nm were used. A relative fluorescence unit difference (ΔRFU) was calculated by subtracting the measured value of the sample for BG measurement from the measured value of each of the samples.
50 μL of each of the MMP14 detection solutions was added to 50 μL of each of the samples, a reaction was performed at 30° C., and MMP14 activity was evaluated.

[2] = target: T1, MMP14 in the MDA-MB-231-derived extracellular vesicles; assay: Digital detection of MDA-MB-231-derived extracellular vesicles through MMP14 activity in wells (microcompartments); format: biochemical
Protocol: The concentration of the solution is 6.7 μg/mL.
100 μL of the MMP14 detection solution was added to 100 μL of the sample to provide a reaction solution for wells. […] 100 μL of 200 μL of the prepared reaction solution for wells was used in the measurement of MMP14 activity with a 96-well plate.
Next, the wells were filled with the reaction solution by leaving the well array 200 to stand under reduced pressure to degas the space 205. After that, the space 205 was fed with hydrophobic solvents to be sealed. Fluorinated oils AsahiKlin AE-3000 (manufactured by AGC Inc.) and Fomblin Y-25 (manufactured by Solvay S.A.) were used as the hydrophobic solvents. A fluorinated oil Simoa (trademark) SR-X Sealing Oil: 102767 (manufactured by Quanterix Corporation) was further used as another hydrophobic solvent.
Well diameter: 4.25 μm Well depth: 3.25 μm Well capacity: 50 fL Number of wells in array: 239,000 Array range: 3 mm×4 mm
The concentration of the solution is 20 μg/mL. […] The concentration of the solution was set to x1, and 10-fold serial dilution was performed to prepare standard samples with five concentrations.
Next, the wells were filled with the reaction solution by leaving the well array 200 to stand under reduced pressure to degas the space 205. After that, the space 205 was fed with hydrophobic solvents to be sealed.
The concentration of the solution is 20 μg/mL. […] The concentration of the solution was set to x1, and 3-fold serial dilution was performed to prepare standard samples with three concentrations.
The concentration of the solution is 20 μg/mL. […] The concentration of the solution was set to x1, and 2-fold serial dilution was performed to prepare standard samples with four concentrations.
The concentration of the solution is 5 μg/mL.
50 μL of the MMP14 detection solution was added to 50 μL of the sample to provide a reaction solution for wells.
50 μL of each of the MMP14 detection solutions was added to 50 μL of the sample to provide a reaction solution for wells.
The concentration of the solution is 6.7 µg/mL.

[3] = Example 9, EV 4 μg/mL, buffer (3), 37° C., Lineweaver-Burk plots
[4] = Example 20, 37° C., 5 h, BG, EV 0 (free of extracellular vesicles, pseudopositive)
[5] = Example 20, 37° C., 5 h, ΔBG Absent, EV 0.0001 a.u.
[6] = Example 20, 37° C., 5 h, ΔBG Absent, EV 0.001 a.u.
[7] = Example 20, 37° C., 5 h, ΔBG Absent, EV 0.01 a.u.
[8] = Example 20, 37° C., 5 h, ΔBG Absent, EV 0.1 a.u.
[9] = Example 20, 37° C., 5 h, ΔBG Absent, EV 1 a.u. (x1=10 μg/mL)
[10] = Example 20, 37° C., 5 h, ΔBG Present (positives at EV 0 subtracted), EV 1 a.u.
[11] = Example 20, 37° C., 5 h, ΔBG Present, EV 0.001 a.u.
[12] = Example 20, 37° C., 5 h, ΔBG Present, EV 0.01 a.u.
[13] = Example 20, 37° C., 5 h, ΔBG Present, EV 0.1 a.u.
[14] = Example 22, buffer (2), 37° C., 1 h, EV 0 (free of extracellular vesicles)
[15] = Example 22, buffer (2), 37° C., 1 h, EV 0.111 a.u.
[16] = Example 22, buffer (2), 37° C., 1 h, EV 0.333 a.u.
[17] = Example 22, buffer (2), 37° C., 1 h, EV 1 a.u. (x1=10 μg/mL)
[18] = Example 22, buffer (2), 37° C., 2 h, EV 0 (free of extracellular vesicles)
[19] = Example 22, buffer (2), 37° C., 2 h, EV 0.111 a.u.
[20] = Example 22, buffer (2), 37° C., 2 h, EV 0.333 a.u.
[21] = Example 22, buffer (2), 37° C., 2 h, EV 1 a.u. (x1=10 μg/mL)

With “[5-FAM]GRIGFLRTAK(TQ2)[OH] (5FAM-GRIGFLRTAK(TQ2)-OH) [Custom #1]” the “increase in fluorescence intensity (temporal change)” value ([1]; Example 4, EV 5 μg/mL, reporter 5 μM, 37° C., Assay buffer (Component D)) was “more significant than that from SensoLyte 520 MMP-14”, the “reaction rate per 1 μg/mL of extracellular vesicles” value ([1]; Example 5, Assay buffer (Component D) of SensoLyte 520 MMP-14 Assay Kit, reporter 5 μM, 37° C.) was 101.5 ΔRFU/min and the “reaction rate per 1 μg/mL of extracellular vesicles” value ([1]; Example 8, buffer (2), reporter 5 μM, 37° C.) was 198 ΔRFU/min. The Km [1, 3] was 0.443 µM, the Vmax [1, 3] was 1,278.77 ΔRFU/min and the “cleaved more easily than Custom #2” value ([1]; Example 9 reaction conditions) was “about 2.5 times”. For the same substance, the “fluorescence intensity at the same extracellular vesicle concentration” value ([1]; Example 10, buffer (3), reporter 5 μM, 37° C.) was “higher than the fluorescence intensity from Custom #2”, the “extracellular vesicle concentration at which MMP14 activity was able to be detected with a 96-well plate” value ([1]; buffer (4), reporter 5 μM, 37° C.) was no less than 1 µg/mL and the “Expected value λ” value [2, 4] was 0.000553. The Number of positives [2, 4] was 32, the Positive ratio [2, 4] was 0.000553 and the “Expected value λ” value [2, 5] was 0.000535. The Number of positives [2, 5] was 31, the Positive ratio [2, 5] was 0.000534 and the “Expected value λ” value [2, 6] was 0.00285. For the same substance, the Number of positives [2, 6] was 165, the Positive ratio [2, 6] was 0.00285 and the “Expected value λ” value [2, 7] was 0.0115. The Number of positives [2, 7] was 661, the Positive ratio [2, 7] was 0.0114 and the “Expected value λ” value [2, 8] was 0.137. The Number of positives [2, 8] was 7,404, the Positive ratio [2, 8] was 0.128 and the “Expected value λ” value [2, 9] was 1.16. For the same substance, the Number of positives [2, 9] was 39,601, the Positive ratio [2, 9] was 0.686 and the “Expected value λ” value [2, 10] was 1.16. For the same substance, the Number of positives [2, 10] was 39,569, the Positive ratio [2, 10] was 0.685 and the Number of positives ([2]; Example 20, 37° C., 5 h, ΔBG Present, EV 0.0001 a.u.) was −1. The “Expected value λ” value [2, 11] was 0.0023, the Number of positives [2, 11] was 133 and the Positive ratio [2, 11] was 0.0023. The “Expected value λ” value [2, 12] was 0.0109, the Number of positives [2, 12] was 629 and the Positive ratio [2, 12] was 0.0109. For the same substance, the “Expected value λ” value [2, 13] was 0.136, the Number of positives [2, 13] was 7,372 and the Positive ratio [2, 13] was 0.128. For the same substance, the “λ at x1 in an approximation with BG correction” value ([2]; Example 20, 5 h) was 1.07, the “λ at x1 in an approximation without BG correction” value ([2]; Example 20, 5 h) was 1.03 and the Extracellular vesicle concentration ([2]; Example 20, with BG correction) was 2.1e+10 mL⁻¹. The “extracellular vesicles in which MMP14 activity can be detected, contained in 1 μL of the extracellular vesicles (50 μg of protein in 50 μL of PBS)” value ([2]; Example 20, with BG correction) was 2.1×10^9, the Extracellular vesicle concentration ([2]; Example 20, without BG correction) was 2.1×10^9 /μg of protein and the Extracellular vesicle concentration ([2]; Example 20, without BG correction, reaction solution 10 μg of protein/mL, 50 fL) was 2.1e+10 mL⁻¹. For the same substance, the “expected value λ at x1 (power approximation)” value ([2]; Example 22, after 1 hour) was 0.661, the “expected value λ at x1 (power approximation)” value ([2]; Example 22, after 2 hours) was 0.7145 and the “Expected value λ” value [2, 14] was 0.000725. The Number of positives [2, 14] was 21, the Positive ratio [2, 14] was 0.000725 and the “Expected value λ” value [2, 15] was 0.0784. For the same substance, the Number of positives [2, 15] was 2,186, the Positive ratio [2, 15] was 0.0754 and the “Expected value λ” value [2, 16] was 0.237. The Number of positives [2, 16] was 6,117, the Positive ratio [2, 16] was 0.211 and the “Expected value λ” value [2, 17] was 0.65. The Number of positives [2, 17] was 13,855, the Positive ratio [2, 17] was 0.478 and the “Expected value λ” value [2, 18] was 0.000794. For the same substance, the Number of positives [2, 18] was 23, the Positive ratio [2, 18] was 0.000794 and the “Expected value λ” value [2, 19] was 0.0822. For the same substance, the Number of positives [2, 19] was 2,287, the Positive ratio [2, 19] was 0.0789 and the “Expected value λ” value [2, 20] was 0.238. For the same substance, the Number of positives [2, 20] was 6,143, the Positive ratio [2, 20] was 0.212 and the “Expected value λ” value [2, 21] was 0.719. The Number of positives [2, 21] was 14,860, the Positive ratio [2, 21] was 0.513 and the “extracellular vesicle concentration at which MMP14 activity was able to be detected in the microcompartments” value ([2]; Simoa Discs, buffer (4), reporter 5 μM, 37° C.) was no less than 10 ng/mL.
